Measurements as given in PMC10326445, “Affinity-enhanced RNA-binding domains as tools to understand RNA recognition”.

What was measured:
[1] = target: FMRP RNA-WT (KH1 WT / KH2 RNA-KO, KH1-2 di-domain) (human (hFMRP), UniProt Q06787 216-425, K299D;N300D;del331-396); experiment: NMR titration; unit prefix lost in text (printed M), uM inferred; NMR titrations: 50 uM 15N-protein, 10 mM phosphate pH 6.9, 40 mM NaCl, 0.5 mM TCEP, protein:RNA 1:0 to 1:12; temperature not given; conditions: protein: recombinant; tags: N-terminal 6xHis, cleaved with HRV 3C; single strand
[2] = target: FMRP RNA-AE (KH1 GKKG / KH2 RNA-KO, KH1-2 di-domain) (human (hFMRP), UniProt Q06787 216-425, T236K;H237K;K299D;N300D;del331-396); experiment: NMR titration; Kd value only in figure; NMR titrations: 50 uM 15N-protein, 10 mM phosphate pH 6.9, 40 mM NaCl, 0.5 mM TCEP, protein:RNA 1:0 to 1:12; temperature not given; conditions: protein: recombinant; tags: N-terminal 6xHis, cleaved with HRV 3C; single strand

Binder	Kd [1]	binding signal [2]
UGGAC (ssRNA)	418 ± 57.9 µM	–
GAGCC (ssRNA)	–	~3 fold weaker than GAGAC
GAGAC (ssRNA)	–	~3 fold tighter than GAGCC
UAGAC (ssRNA)	–	2.5 fold weaker than UGGAC
